# Data published in publication PMC3605791 (Nature structural & molecular biology, 2012).
# What was measured:
# [1] = biological target: Rab38:GTP or Rab32:GTP
# [2] = biological target: VAMP7 longin domain (Mus musculus) (UniProt P70280); settings: cited from earlier work
# [3] = biological target: T1, Varp(658–921)His6 (human, UniProt Q96NW4 658-921); assay: pull-down
# [4] = biological target: T1, Varp(658–921)His6; assay: ITC
# T1 sequence (Q96NW4 658-921): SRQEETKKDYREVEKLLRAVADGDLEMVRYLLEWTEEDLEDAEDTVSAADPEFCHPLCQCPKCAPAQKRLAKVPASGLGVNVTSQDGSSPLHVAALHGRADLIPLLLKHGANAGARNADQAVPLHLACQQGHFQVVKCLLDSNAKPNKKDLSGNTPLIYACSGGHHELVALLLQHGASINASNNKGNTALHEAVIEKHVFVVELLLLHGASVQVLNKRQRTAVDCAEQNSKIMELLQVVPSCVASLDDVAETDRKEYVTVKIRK
# Sequence of Hrb (P52594 whole entry): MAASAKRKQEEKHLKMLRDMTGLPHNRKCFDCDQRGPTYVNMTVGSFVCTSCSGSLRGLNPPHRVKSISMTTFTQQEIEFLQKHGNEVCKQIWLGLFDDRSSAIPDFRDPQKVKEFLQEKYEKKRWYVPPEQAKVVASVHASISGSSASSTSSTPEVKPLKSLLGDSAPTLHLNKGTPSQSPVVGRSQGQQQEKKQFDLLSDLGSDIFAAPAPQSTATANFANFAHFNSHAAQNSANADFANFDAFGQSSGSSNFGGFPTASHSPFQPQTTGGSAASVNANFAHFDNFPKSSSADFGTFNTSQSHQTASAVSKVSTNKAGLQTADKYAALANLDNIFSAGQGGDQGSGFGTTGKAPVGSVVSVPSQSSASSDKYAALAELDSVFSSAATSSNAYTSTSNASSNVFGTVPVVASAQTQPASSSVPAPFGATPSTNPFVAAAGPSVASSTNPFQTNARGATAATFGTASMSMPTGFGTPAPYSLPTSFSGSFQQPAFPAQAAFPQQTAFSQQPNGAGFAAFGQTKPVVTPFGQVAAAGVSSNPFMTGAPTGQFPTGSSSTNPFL
# Sequence of Varp (construct not stated, KD with Rab38:GTP or Rab32:GTP) (Q96NW4 whole entry): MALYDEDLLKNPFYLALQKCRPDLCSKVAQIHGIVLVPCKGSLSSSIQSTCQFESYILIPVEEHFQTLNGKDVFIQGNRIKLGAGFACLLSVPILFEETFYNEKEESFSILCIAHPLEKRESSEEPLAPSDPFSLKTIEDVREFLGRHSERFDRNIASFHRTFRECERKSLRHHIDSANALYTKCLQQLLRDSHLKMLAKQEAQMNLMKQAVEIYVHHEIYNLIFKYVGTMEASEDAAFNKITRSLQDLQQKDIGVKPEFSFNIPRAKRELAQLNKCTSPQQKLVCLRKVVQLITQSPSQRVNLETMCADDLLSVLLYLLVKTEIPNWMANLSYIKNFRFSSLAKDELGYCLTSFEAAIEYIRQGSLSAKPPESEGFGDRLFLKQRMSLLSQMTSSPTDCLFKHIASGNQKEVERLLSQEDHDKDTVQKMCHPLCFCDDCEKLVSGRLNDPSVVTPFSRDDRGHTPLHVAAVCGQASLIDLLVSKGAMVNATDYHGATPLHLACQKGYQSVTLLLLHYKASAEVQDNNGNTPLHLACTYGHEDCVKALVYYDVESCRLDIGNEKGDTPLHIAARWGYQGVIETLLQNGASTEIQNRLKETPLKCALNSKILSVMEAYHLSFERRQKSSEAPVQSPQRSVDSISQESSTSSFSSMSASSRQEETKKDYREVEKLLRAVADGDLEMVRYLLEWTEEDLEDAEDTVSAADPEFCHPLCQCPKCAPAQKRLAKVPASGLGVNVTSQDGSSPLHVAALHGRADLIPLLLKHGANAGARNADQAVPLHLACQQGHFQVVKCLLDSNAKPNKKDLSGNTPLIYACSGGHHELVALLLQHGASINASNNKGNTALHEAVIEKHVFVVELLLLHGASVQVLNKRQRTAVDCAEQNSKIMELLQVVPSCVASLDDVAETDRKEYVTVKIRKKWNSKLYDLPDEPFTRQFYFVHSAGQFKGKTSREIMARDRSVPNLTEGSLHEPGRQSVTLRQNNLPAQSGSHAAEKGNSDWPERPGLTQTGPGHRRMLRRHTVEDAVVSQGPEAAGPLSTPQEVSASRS
Molecule,Kd [4],also measured
"Varp (construct not stated, KD with Rab38:GTP or Rab32:GTP) (from UniProt Q96NW4 1-1050) (natural protein)",,Kd [1]: 2 to 5 µM
Hrb (from UniProt P52594),,Kd [2]: 10 µM
GSTVAMP7 residues 1–160 (domain or fragment) MAILFAVVARGTTILAKHAWCGGNFLEVTEQILAKIPSENNKLTYSHGNYLFHYICQDRIVYLCITDDDFERSRAFSFLNEVKKRFQTTYGSRAQTALPYAMNSEFSSVLAAQLKHHSENKSLDKVMETQAQVDELKGIMVRNIDLVAQRGERLELLIDK,,binding result [3]: binds
VAMP7 R72A (domain or fragment) MAILFAVVARGTTILAKHAWCGGNFLEVTEQILAKIPSENNKLTYSHGNYLFHYICQDRIVYLCITDDDFEASRAFSFLNEVKKRFQTTYGSRAQTALPYAMNSEFSSVLAAQLKHHSENKSLDKVMETQAQVDELKGIMVRNIDLVAQRGERLELLIDKTENLVDSSVTFKTTSRNLARAMCMKNIK,> 300 µM,

# Further lines, with some results ahead:
Kd [4],Molecule,also measured
2.3 µM,VAMP7 CD (1–188) (domain or fragment) MAILFAVVARGTTILAKHAWCGGNFLEVTEQILAKIPSENNKLTYSHGNYLFHYICQDRIVYLCITDDDFERSRAFSFLNEVKKRFQTTYGSRAQTALPYAMNSEFSSVLAAQLKHHSENKSLDKVMETQAQVDELKGIMVRNIDLVAQRGERLELLIDKTENLVDSSVTFKTTSRNLARAMCMKNIK,
> 300 µM,VAMP7 D69A E71F S73D (domain or fragment) MAILFAVVARGTTILAKHAWCGGNFLEVTEQILAKIPSENNKLTYSHGNYLFHYICQDRIVYLCITDDAFFRDRAFSFLNEVKKRFQTTYGSRAQTALPYAMNSEFSSVLAAQLKHHSENKSLDKVMETQAQVDELKGIMVRNIDLVAQRGERLELLIDKTENLVDSSVTFKTTSRNLARAMCMKNIK,
